# Non-standard residues stand in square brackets, D forms with d. No end group written: not given here. *: point of attachment. Acetyl(2-(piperazin-1-yl)) = O=C(CN1CCNCC1)*; PEG 20 kDa = methoxypolyethylene glycol 20k; PEG 30 kDa = methoxypolyethylene glycol 30k; NMeY = CN[C@@H](Cc1ccc(O)cc1)C(=O)O; NMeR = CN[C@@H](CCCNC(=N)N)C(=O)O; NMeL = CN[C@@H](CC(C)C)C(=O)O; NMeA = CN[C@@H](C)C(=O)O; βAla = NCCC(=O)O
# T1: Human FM3 (human, UniProt Q9HB89 1-426)
# T1 construct: whole, on cells; Assayed as the membrane fraction of FM3-expressing CHO cells (1.2 mg/mL protein); also called NMUR1; FM3 receptor
# T1 sequence (looked up): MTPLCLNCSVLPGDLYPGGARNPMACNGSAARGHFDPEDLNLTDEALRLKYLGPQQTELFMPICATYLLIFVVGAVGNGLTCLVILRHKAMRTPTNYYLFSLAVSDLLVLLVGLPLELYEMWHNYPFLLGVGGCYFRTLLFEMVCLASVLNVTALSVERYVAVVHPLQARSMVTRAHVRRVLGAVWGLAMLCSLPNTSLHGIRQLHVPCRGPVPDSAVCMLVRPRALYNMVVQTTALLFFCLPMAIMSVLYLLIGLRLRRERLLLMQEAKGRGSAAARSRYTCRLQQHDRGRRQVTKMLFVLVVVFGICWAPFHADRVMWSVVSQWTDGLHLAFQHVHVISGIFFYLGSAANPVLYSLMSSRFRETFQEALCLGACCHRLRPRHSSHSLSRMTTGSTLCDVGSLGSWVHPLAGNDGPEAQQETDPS
# What was measured:
# human TGR1 = biological target: T2, human TGR1 (human, UniProt Q9GZQ4 1-415); assay: displacement of 125I-NMU8 from human TGR1 CHO membrane fraction; IC50 relative to NMU-8;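 further: competitive binding on TGR1-expressing CHO cell membranes, with compounds tested as DMSO dilution series and incubated for 70 min at 25 °C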
# T2 construct: whole, on cells; Assayed as the membrane fraction of TGR1-expressing CHO cells (1.1 mg/mL protein); also called NMUR2; TGR1 receptor
# T2 sequence (Q9GZQ4 whole entry): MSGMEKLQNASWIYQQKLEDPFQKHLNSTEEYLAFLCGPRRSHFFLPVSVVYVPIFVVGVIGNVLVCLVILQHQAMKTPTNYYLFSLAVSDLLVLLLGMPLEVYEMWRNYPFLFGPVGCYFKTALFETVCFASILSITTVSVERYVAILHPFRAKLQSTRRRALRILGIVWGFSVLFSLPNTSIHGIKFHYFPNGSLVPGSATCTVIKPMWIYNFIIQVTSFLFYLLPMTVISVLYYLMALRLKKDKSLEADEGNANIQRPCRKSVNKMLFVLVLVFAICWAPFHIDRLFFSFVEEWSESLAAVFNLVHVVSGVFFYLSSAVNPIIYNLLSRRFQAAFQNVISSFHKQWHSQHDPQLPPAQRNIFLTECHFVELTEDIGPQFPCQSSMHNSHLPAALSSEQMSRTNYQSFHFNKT
# Procedure: (§1) 15 mL of homogenized buffer (10 mM NaHCO₃ (pH 7.4), 5 mM EDTA, protease inhibitor=0.5 mM PMSF, 10 μg/mL Pepstatin A, 20 μg/mL Leupeptin, and 4 μg/mL E-64) was added to the obtained cell pellets, the cellular membrane was disrupted using a polytron homogenizer (Kinematica GmbH), centrifugation was conducted for 10 minutes at 1,000 g at 4° C., and the supernatant was collected. This process was further repeated twice, and ultracentrifugation was conducted for 60 minutes at 30,000 rpm at 4° C. Thereafter, 8 mL of homogenized buffer was added to the pellets and suspended homogeneously to prepare a membrane fraction. The protein concentration of the FM3-expressing CHO cellular membrane fraction was 1.2 mg/mL, and the protein concentration of the TGR1-expressing CHO cellular membrane fraction was 1.1 mg/mL.
# (§2) Specifically, each of the NMU derivatives and PEG conjugates was dissolved in DMSO so as to prepare 2 μL of each dilution series of the NMU derivatives and PEG conjugates. […] The resulting product was thoroughly mixed, and then a reaction was carried out at 25° C. for 70 minutes.
# Human FM3 = biological target: T1, Human FM3; assay: displacement of 125I-NMU8 from human FM3 CHO membrane fraction; IC50 relative to NMU-8;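 further: binding reaction run for 70 min at 25 °C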
# Procedure: as §1, §2
IC50 ratio (human TGR1),IC50 ratio (Human FM3),Binder
27 ratio to NMU-8 (=1),,"[βAla][NMeY]F[NMeL]F[NMeR]PRN-NH2 (N-terminus assumed; SMILES CC(C)C[C@@H](C(=O)N[C@@H](Cc1ccccc1)C(=O)N(C)[C@@H](CCCNC(=N)N)C(=O)N1CCC[C@H]1C(=O)N[C@@H](CCCNC(=N)N)C(=O)N[C@@H](CC(N)=O)C(N)=O)N(C)C(=O)[C@H](Cc1ccccc1)NC(=O)[C@H](Cc1ccc(O)cc1)N(C)C(=O)CCN, also called β-Ala0,NMeTry1,NMeLeu3,NMEArg5-NMU-8) [β-Ala0,NMeTyr1,NMeLeu3,NMeArg5-NMU-8 (Compound 16)]"
,0.46 ratio to NMU-8 (=1),"[βAla]YFLF[NMeR]PRN-NH2 (N-terminus assumed; SMILES CC(C)C[C@H](NC(=O)[C@H](Cc1ccccc1)NC(=O)[C@H](Cc1ccc(O)cc1)NC(=O)CCN)C(=O)N[C@@H](Cc1ccccc1)C(=O)N(C)[C@@H](CCCNC(=N)N)C(=O)N1CCC[C@H]1C(=O)N[C@@H](CCCNC(=N)N)C(=O)N[C@@H](CC(N)=O)C(N)=O) [β-Ala0,NMeArg5-NMU-8 (Compound 13)]"
1.9 ratio to NMU-8 (=1),92 ratio to NMU-8 (=1),"[βAla]YWLFR[NMeA]RN-NH2 (N-terminus assumed; SMILES CC(C)C[C@H](NC(=O)[C@H](Cc1c[nH]c2ccccc12)NC(=O)[C@H](Cc1ccc(O)cc1)NC(=O)CCN)C(=O)N[C@@H](Cc1ccccc1)C(=O)N[C@@H](CCCNC(=N)N)C(=O)N(C)[C@@H](C)C(=O)N[C@@H](CCCNC(=N)N)C(=O)N[C@@H](CC(N)=O)C(N)=O) [β-Ala0,Trp2,NMeAla6-NMU-8 (Compound 17)]"
540 ratio to NMU-8 (=1),,"{PEG 20 kDa-βAla}-YELFR[NMeA]RN-NH2 [PEG20k-NH-β-Ala0,Glu2,NMeAla6-NMU-8 (Compound R)]"
750 ratio to NMU-8 (=1),,"{PEG 20 kDa-Acetyl(2-(piperazin-1-yl))}-YELFRARN-NH2 (also called PEG20k-NpipAc-Glu2,Ala6-NMU8) [PEG20k-NpipAc0,Glu2,Ala6-NMU-8 (Compound S)]"
360 ratio to NMU-8 (=1),,"{PEG 20 kDa-Acetyl(2-(piperazin-1-yl))}-YELFR[NMeA]RN-NH2 (also called PEG20k-NpipAc-Glu2,NMeAla6-NMU8) [PEG20k-NpipAc0,Glu2,NMeAla6-NMU-8 (Compound U)]"
31 ratio to NMU-8 (=1),26000 ratio to NMU-8 (=1),"[βAla]YELFR[NMeA]RN-NH2 (N-terminus assumed; SMILES CC(C)C[C@H](NC(=O)[C@H](CCC(=O)O)NC(=O)[C@H](Cc1ccc(O)cc1)NC(=O)CCN)C(=O)N[C@@H](Cc1ccccc1)C(=O)N[C@@H](CCCNC(=N)N)C(=O)N(C)[C@@H](C)C(=O)N[C@@H](CCCNC(=N)N)C(=O)N[C@@H](CC(N)=O)C(N)=O) [β-Ala0,Glu2,NMeAla6-NMU-8 (Compound 18)]"
5.5 ratio to NMU-8 (=1),6500 ratio to NMU-8 (=1),"{Acetyl(2-(piperazin-1-yl))}-YELFR[NMeA]RN-NH2 (SMILES CC(C)C[C@H](NC(=O)[C@H](CCC(=O)O)NC(=O)[C@H](Cc1ccc(O)cc1)NC(=O)CN1CCNCC1)C(=O)N[C@@H](Cc1ccccc1)C(=O)N[C@@H](CCCNC(=N)N)C(=O)N(C)[C@@H](C)C(=O)N[C@@H](CCCNC(=N)N)C(=O)N[C@@H](CC(N)=O)C(N)=O, also called 2-(piperazin-1-yl)acetyl-[Glu2,NMeAla6]-NMU8) [NpipAc0,Glu2,NMeAla6-NMU-8 (Compound 21)]"
25 ratio to NMU-8 (=1),24000 ratio to NMU-8 (=1),"{Acetyl(2-(piperazin-1-yl))}-YELFRARN-NH2 (SMILES CC(C)C[C@H](NC(=O)[C@H](CCC(=O)O)NC(=O)[C@H](Cc1ccc(O)cc1)NC(=O)CN1CCNCC1)C(=O)N[C@@H](Cc1ccccc1)C(=O)N[C@@H](CCCNC(=N)N)C(=O)N[C@@H](C)C(=O)N[C@@H](CCCNC(=N)N)C(=O)N[C@@H](CC(N)=O)C(N)=O, also called 2-(piperazin-1-yl)acetyl-[Glu2,Ala6]-NMU8) [NpipAc0,Glu2,Ala6-NMU-8 (Compound 19)]"
55 ratio to NMU-8 (=1),,"{PEG 20 kDa-Acetyl(2-(piperazin-1-yl))}-YWLFRARN-NH2 (also called PEG20k-NpipAc-Trp2,Ala6-NMU8) [PEG20k-NpipAc0,Trp2,Ala6-NMU-8 (Compound T)]"
0.66 ratio to NMU-8 (=1),0.27 ratio to NMU-8 (=1),"{Acetyl(2-(piperazin-1-yl))}-YFRFRPRN-NH2 (SMILES N=C(N)NCCC[C@H](NC(=O)[C@H](Cc1ccccc1)NC(=O)[C@H](Cc1ccc(O)cc1)NC(=O)CN1CCNCC1)C(=O)N[C@@H](Cc1ccccc1)C(=O)N[C@@H](CCCNC(=N)N)C(=O)N1CCC[C@H]1C(=O)N[C@@H](CCCNC(=N)N)C(=O)N[C@@H](CC(N)=O)C(N)=O, also called NpipAc-Arg3-NMU-8) [2-(piperazin-1-yl)acetyl-Arg3-NMU8 (Compound 10)]"
21 ratio to NMU-8 (=1),9.4 ratio to NMU-8 (=1),"{PEG 30 kDa-βAla}-PFLFRPRN-NH2 (also called PEG-NH-β-Ala0,Pro1-NMU-8) [PEG30k-NH-β-Ala0,Pro1-NMU-8 (Compound H)]"
2.2 ratio to NMU-8 (=1),5.3 ratio to NMU-8 (=1),"{PEG 30 kDa-βAla}-YFVFRPRN-NH2 (also called PEG-NH-β-Ala0,Val3-NMU-8) [PEG30k-NH-β-Ala0,Val3-NMU-8 (Compound D)]"
3.4 ratio to NMU-8 (=1),15 ratio to NMU-8 (=1),"[βAla]YFLFQPRN-NH2 (N-terminus assumed; SMILES CC(C)C[C@H](NC(=O)[C@H](Cc1ccccc1)NC(=O)[C@H](Cc1ccc(O)cc1)NC(=O)CCN)C(=O)N[C@@H](Cc1ccccc1)C(=O)N[C@@H](CCC(N)=O)C(=O)N1CCC[C@H]1C(=O)N[C@@H](CCCNC(=N)N)C(=O)N[C@@H](CC(N)=O)C(N)=O) [β-Ala0,Gln5-NMU-8 (Compound 1)]"
2.6 ratio to NMU-8 (=1),2.2 ratio to NMU-8 (=1),{PEG 30 kDa-Acetyl(2-(piperazin-1-yl))}-YFRFRPRN-NH2 [PEG30k-NpipAc-Arg3-NMU-8 (Compound J)]
9.6 ratio to NMU-8 (=1),160 ratio to NMU-8 (=1),"{PEG 30 kDa-βAla}-YFLFQPRN-NH2 (also called PEG-NH-β-Ala0,Gln5-NMU-8) [PEG30k-NH-β-Ala0,Gln5-NMU-8 (Compound A)]"
3.9 ratio to NMU-8 (=1),0.31 ratio to NMU-8 (=1),"[βAla]YFQFRPRN-NH2 (N-terminus assumed; SMILES N=C(N)NCCC[C@H](NC(=O)[C@@H]1CCCN1C(=O)[C@H](CCCNC(=N)N)NC(=O)[C@H](Cc1ccccc1)NC(=O)[C@H](CCC(N)=O)NC(=O)[C@H](Cc1ccccc1)NC(=O)[C@H](Cc1ccc(O)cc1)NC(=O)CCN)C(=O)N[C@@H](CC(N)=O)C(N)=O) [β-Ala0,Gln3-NMU-8 (Compound 2)]"
8.5 ratio to NMU-8 (=1),1.5 ratio to NMU-8 (=1),"{PEG 30 kDa-βAla}-RFLFRPRN-NH2 (also called PEG-NH-β-Ala0,Arg1-NMU-8) [PEG30k-NH-β-Ala0,Arg1-NMU-8 (Compound G)]"
2.6 ratio to NMU-8 (=1),1.7 ratio to NMU-8 (=1),"{PEG 30 kDa-βAla}-YFRFRPRN-NH2 (also called PEG-NH-β-Ala0,Arg3-NMU-8) [PEG30k-NH-β-Ala0,Arg3-NMU-8 (Compound C)]"
1.7 ratio to NMU-8 (=1),8.1 ratio to NMU-8 (=1),"{PEG 30 kDa-βAla}-YYLFRPRN-NH2 (also called PEG-NH-β-Ala0,Tyr2-NMU-8) [PEG30k-NH-β-Ala0,Tyr2-NMU-8 (Compound E)]"
1.9 ratio to NMU-8 (=1),0.62 ratio to NMU-8 (=1),YFRFRPRN-NH2 (no linker) [Arg3-NMU-8 (Compound 9)]
2 ratio to NMU-8 (=1),2.4 ratio to NMU-8 (=1),"[βAla]YFLFRPRD-NH2 (N-terminus assumed; SMILES CC(C)C[C@H](NC(=O)[C@H](Cc1ccccc1)NC(=O)[C@H](Cc1ccc(O)cc1)NC(=O)CCN)C(=O)N[C@@H](Cc1ccccc1)C(=O)N[C@@H](CCCNC(=N)N)C(=O)N1CCC[C@H]1C(=O)N[C@@H](CCCNC(=N)N)C(=O)N[C@@H](CC(=O)O)C(N)=O) [β-Ala0,Asp8-NMU-8 (Compound 12)]"
34 ratio to NMU-8 (=1),150 ratio to NMU-8 (=1),"{PEG 30 kDa-βAla}-YFLFRPRD-NH2 [PEG30k-NH-β-Ala0,Asp8-NMU-8 (Compound L)]"
0.38 ratio to NMU-8 (=1),0.07 ratio to NMU-8 (=1),"[βAla]YFRFRPRN-NH2 (N-terminus assumed; SMILES N=C(N)NCCC[C@H](NC(=O)[C@H](Cc1ccccc1)NC(=O)[C@H](Cc1ccc(O)cc1)NC(=O)CCN)C(=O)N[C@@H](Cc1ccccc1)C(=O)N[C@@H](CCCNC(=N)N)C(=O)N1CCC[C@H]1C(=O)N[C@@H](CCCNC(=N)N)C(=O)N[C@@H](CC(N)=O)C(N)=O) [β-Ala0,Arg3-NMU-8 (Compound 3)]"
3.7 ratio to NMU-8 (=1),0.42 ratio to NMU-8 (=1),"[βAla]RFLFRPRN-NH2 (N-terminus assumed; SMILES CC(C)C[C@H](NC(=O)[C@H](Cc1ccccc1)NC(=O)[C@H](CCCNC(=N)N)NC(=O)CCN)C(=O)N[C@@H](Cc1ccccc1)C(=O)N[C@@H](CCCNC(=N)N)C(=O)N1CCC[C@H]1C(=O)N[C@@H](CCCNC(=N)N)C(=O)N[C@@H](CC(N)=O)C(N)=O) [β-Ala0,Arg1-NMU-8 (Compound 7)]"
2.1 ratio to NMU-8 (=1),1.6 ratio to NMU-8 (=1),{PEG 20 kDa-Acetyl(2-(piperazin-1-yl))}-YFRFRPRN-NH2 [PEG20k-NpipAc-Arg3-NMU-8 (Compound I)]
7.3 ratio to NMU-8 (=1),1.8 ratio to NMU-8 (=1),"{PEG 30 kDa-βAla}-YFQFRPRN-NH2 (also called PEG-NH-β-Ala0,Gln3-NMU-8) [PEG30k-NH-β-Ala0,Gln3-NMU-8 (Compound B)]"

# — patent US20120094899A1 (Takeda / Millennium, published 2012)
